Assay results published in patent US20100167314A1 (JAPAN SCIENCE AND TECHNOLOGY AGENCY, published 2010).

B1: mouse IRBIT (IP3 receptor-binding protein; IP3R-binding protein released with inositol 1,4,5-trisphosphate) (other)
chain: MSMPDAMPLPGVGEELKQAKEIEDAEKYSFMATVTKAPKKQIQFADDMQEFTKFPTKTGRRSLSRSISQSSTDSYSSAASYTDSSDDEVSPREKQQTNSKGSSNFCVKNIKQAEFGRREIEIAEQDMSALISLRKRAQGEKPLAGAKIVGCTHITAQTAVLIETLCALGAQCRWSACNIYSTQNEVAAALAEAGVAVFAWKGESEDDFWWCIDRCVNMDGWQANMILDDGGDLTHWVYKKYPNVFKKIRGIVEESVTGVHRLYQLSKAGKLCVPAMNVNDSVTKQKFDNLYCCRESILDGLKRTTDVMFGGKQVVVCGYGEVGKGCCAALKALGAIVYITEIDPICALQACMDGFRVVKLNEVIRQVDVVITCTGNKNVVTREHLDRMKNSCIVCNMGHSNTEIDVTSLRTPELTWERVRSQVDHVIWPDGKRVVLLAEGRLLNLSCSTVPTFVLSITATTQALALIELYNAPEGRYKQDVYLLPKKMDEYVASLHLPSFDAHLTELTDDQAKYLGLNKNGPFKPNYYRY
notes: also called Mouse-derived IRBIT

Tests used:
[1] = target: T1, myc-tagged CPSF160 subunit of mouse CPSF (mouse, UniProt Q9EPU4 1-1441, limits assumed); test: co-expression in COS cells, co-immunoprecipitation, detection with anti-IRBIT and anti-myc antibodies
T1 construct: Co-expressed with IRBIT in COS cells; not shown: myc tag
T1 sequence (looked up): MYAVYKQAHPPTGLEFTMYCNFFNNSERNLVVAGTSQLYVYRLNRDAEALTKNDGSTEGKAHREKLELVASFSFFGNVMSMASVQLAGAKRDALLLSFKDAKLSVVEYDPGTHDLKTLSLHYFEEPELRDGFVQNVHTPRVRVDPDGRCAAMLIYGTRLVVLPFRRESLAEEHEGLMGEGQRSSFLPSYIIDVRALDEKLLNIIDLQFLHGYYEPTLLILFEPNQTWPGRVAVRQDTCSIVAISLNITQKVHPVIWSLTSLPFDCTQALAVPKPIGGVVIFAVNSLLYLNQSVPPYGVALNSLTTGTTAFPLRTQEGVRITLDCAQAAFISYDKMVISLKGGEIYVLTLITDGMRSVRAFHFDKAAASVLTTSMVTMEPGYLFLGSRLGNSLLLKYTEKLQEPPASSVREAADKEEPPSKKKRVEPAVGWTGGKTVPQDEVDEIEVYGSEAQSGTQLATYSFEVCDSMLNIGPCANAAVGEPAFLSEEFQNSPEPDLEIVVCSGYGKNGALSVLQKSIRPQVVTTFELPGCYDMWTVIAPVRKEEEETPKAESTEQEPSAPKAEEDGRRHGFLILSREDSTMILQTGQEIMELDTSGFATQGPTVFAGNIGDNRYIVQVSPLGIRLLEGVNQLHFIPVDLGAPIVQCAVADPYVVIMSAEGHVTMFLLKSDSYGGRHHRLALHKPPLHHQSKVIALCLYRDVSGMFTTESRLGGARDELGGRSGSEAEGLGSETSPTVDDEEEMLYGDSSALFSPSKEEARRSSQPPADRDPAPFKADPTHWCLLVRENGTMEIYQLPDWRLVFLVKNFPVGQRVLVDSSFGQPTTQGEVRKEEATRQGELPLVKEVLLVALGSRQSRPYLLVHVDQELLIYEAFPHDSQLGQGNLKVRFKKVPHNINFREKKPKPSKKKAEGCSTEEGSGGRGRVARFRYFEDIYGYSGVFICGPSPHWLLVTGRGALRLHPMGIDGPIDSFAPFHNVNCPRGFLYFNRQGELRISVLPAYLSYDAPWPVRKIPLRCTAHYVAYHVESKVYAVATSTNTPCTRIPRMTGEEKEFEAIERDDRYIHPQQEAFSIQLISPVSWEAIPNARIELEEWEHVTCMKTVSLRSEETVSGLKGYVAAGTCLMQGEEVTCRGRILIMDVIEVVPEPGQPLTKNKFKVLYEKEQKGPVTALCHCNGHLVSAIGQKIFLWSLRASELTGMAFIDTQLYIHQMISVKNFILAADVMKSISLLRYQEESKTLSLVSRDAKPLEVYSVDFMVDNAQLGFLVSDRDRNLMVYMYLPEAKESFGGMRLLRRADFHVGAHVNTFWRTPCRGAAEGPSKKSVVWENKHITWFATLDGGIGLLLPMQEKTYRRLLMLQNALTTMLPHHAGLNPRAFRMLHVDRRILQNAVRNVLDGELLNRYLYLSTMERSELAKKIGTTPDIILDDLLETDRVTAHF
Procedure: CPSF is a group of conjugated proteins consisting of 4 subunits: CPSF160, CPSF100, CPSF73, and CPSF30. First, to reveal to which one of the 4 subunits IRBIT binds, myc-tagged cDNAs prepared by tagging each subunit with myc were expressed together with IRBIT in various combinations by COS cells or the like and then the way in which coprecipitation occurs upon immunoprecipitation of IRBIT or CPSF was examined.
DNA was prepared by fusing DNA encoding an myc tag to cDNA encoding the full-length of or each subunit of CPSF. The thus prepared DNA was inserted into a vector for mammals. Meanwhile, cDNA encoding IRBIT was also inserted into the same vector. COS cells were transformed with the thus prepared vector and then the above DNA was co-expressed.
Cells were separated by centrifugation and then lysed. Cytoplasmic fractions were collected and then the binding of IRBIT to CPSF was detected using an anti-IRBIT antibody (JP2004-129612 A) and an anti-myc antibody.

[2] = target: B1; test: immunoprecipitation from mouse cerebellum with anti-IRBIT antibody
Procedure: (1) Mouse IRBIT and Myc-PIPKIIα, β, or γ were over-expressed in COS-7, followed by immunoprecipitation. Specifically, cells were solubilized with a lysis buffer (10 mM Hepes, 100 mM NaCl, 2 mM EDTA, 1% P-40, pH 7.4) and then centrifuged (20000×g, 30 minutes) to collect supernatants. Subsequently, an anti-Myc antibody or an anti-IRBIT antibody was added and then reaction was performed for 1 hour. Furthermore, protein G Sepharose® was added before one hour reaction, and the immune complex was washed with a lysis buffer and then eluted with a SDS-PAGE sample buffer. Subsequently, Western blotting was performed using an anti-Myc antibody or an anti-IRBIT antibody. As a result, IRBIT was coprecipitated with Myc-PIPKIIα, β, and γ (FIG. 4). (2) Immunoprecipitation was performed using an anti-IRBIT antibody and the mouse cerebellum, so that PIPKIIα was coprecipitated (FIG. 5). The in vivo binding of IRBIT with PIPKII was confirmed based on the results. (3) Mouse IRBIT and Myc-PIPKIIγ were overexpressed in COS-7 and then immunostaining was performed. Specifically, after fixation with 4% paraformaldehyde, transmembrane treatment with 0.1% Triton X-100 and blocking treatment with 2% goat serum were performed, a mouse anti-Myc antibody and a rabbit anti-IRBIT antibody were added, and then reaction was performed at room temperature for 1 hour. […]

Row | Binder | binding result [1] | binding result [2]
1 | B1 | binds | –
2 | mouse cerebellum PIPKIIα (enzyme, UniProt O70172 2-405, looked up, Endogenous protein coprecipitated with an anti-IRBIT antibody) ATPGNLGSSVLASKTKTKKKHFVAQKVKLFRASDPLLSVLMWGVNHSINELSHVQIPVMLMPDDFKAYSKIKVDNHLFNKENMPSHFKFKEYCPMVFRNLRERFGIDDQDFQNSLTRSAPLPNDSQARSGARFHTSYDKRYVIKTITSEDVAEMHNILKKYHQYIVECHGVTLLPQFLGMYRLNVDGVEIYVIVTRNVFSHRLSVYRKYDLKGSTVAREASDKEKAKELPTLKDNDFINEGQKIYIDDNNKKIFLEKLKKDVEFLAQLKLMDYSLLVGIHDVERAEQEEVECEENDGEEEGESDSTHPIGTPPDSPGNTLNSSPPLAPGEFDPNIDVYAIKCHENAPRKEVYFMAIIDILTHYDAKKKAAHAAKTVKHGAGAEISTVNPEQYSKRFLDFIGHIL | – | binds
